# Experimental data: patent US20250019428A1 (Janssen / Centocor, published 2025)
# Numbering of substitutions follows the chain as printed. In names and notes the source's numbering stands.
# B1: GenTNV148.26.12 (antibody, human IgG1, kappa, V domains shown)
# VH: QVQLVESGGGVVQPGRSLRLSCAASGFIFSSYAMHWVRQAPGNGLEWVAFMSYDGSNKKYADSVKGRFTISRDNPKNTLYLQMNSLRAEDTAVYYCARDRGIAAGGNYYYYGMDVWGQGTTVTVSS
# VL: EIVLTQSPATLSLSPGERATLSCRASQSVYSYLAWYQQKPGQAPRLLIYDASNRATGIPARFSGSGSGTDFTLTISSLEPEDFAVYYCQQRSNWPPFTFGPGTKVDIKR
# notes: Hybridoma-derived human IgG1 kappa; also called C420A
# B2: GenTNV86.14.34 (antibody, human IgG1, kappa, V domains shown)
# VH: B1 VH
# VL: B1 VL
# notes: The constant region allotype is uncertain, as explained in the m8 note; also called C417A
# B3: GenTNV15.28.11 (antibody, V domains shown)
# VH: B1 VH with I28T, N43K, M51I, S52L, P75S, T78A, I102V, A103S
# VL: EIVLTQSPATLSLSPGERATLSCRASQSVSSYLAWYQQKPGQAPRLLIYDASNRATGIPARFSGSGSGTDFTLTISSLEPEDFAVYYCQQRSNWPPFTFGPGTKVDIK
# B4: golimumab (antibody, human IgG1, kappa, V domains shown)
# VH: B1 VH with P75S
# VL: B1 VL
# modifications: N-glycosylated on asparagine 306
# notes: Fully human IgG1 kappa; The commercial material is expressed in Sp2/0 cells; also called SIMPONI
# Columns and labels:
# [1] = target: T1, recombinant human TNFα (human, UniProt P01375 77-233, 125I-labeled in the receptor inhibition assay); assay: cell-based or functional assay
# [2] = target: T1, recombinant human TNFα; assay: competition: 125I-TNFα binding to coated p55-sf2, hybridoma supernatants
# Description: (§1) 50:1 of p55-sf2 at 0.5:g/ml in PBS was added to Optiplates to coat the wells during a one-hour incubation at 37° C. Serial dilutions of the eight TNV cell supernatants were prepared in 96-well round-bottom plates using PBS/0.1% BSA as diluent. […] The mixture was preincubated for one hour at RT. The coated Optiplates were washed to remove unbound p55-sf2 and 50:1 of the ¹²⁵I-TNFα/cell supernatant mixture was transferred to the Optiplates. After 2 hrs at RT, Optiplates were washed three times with PBS-Tween. […] of Microscint-20 was added and the cpm bound determined using the TopCount gamma counter.
# A simple binding assay was done to determine whether the eight TNV mAbs contained in hybridoma cell supernatant were capable of blocking TNFα binding to receptor. The concentrations of the TNV mAbs in their respective cell supernatants were first determined by standard ELISA analysis for human IgG.
# [3] = target: T1, recombinant human TNFα; assay: competition radioligand assay: mAb in hybridoma supernatant preincubated with 5 ng/ml 125I-TNFα, then binding of 125I-TNFα to plate-coated p55-sf2 counted as cpm bound
# Description: Varying amounts of hybridoma cell supernatants containing known amounts of TNV mAb were preincubated with a fixed concentration (5 ng/ml) of ¹²⁵I-labeled TNFα. […] The amount of TNFα that bound to the p55 receptor in the presence of the mAbs was determined after washing away the unbound material and counting using a gamma counter. […] Each sample was tested in duplicate. The results shown are representative of two independent experiments.
# as §1
# A simple binding assay was done to determine whether the eight TNV mAbs contained in hybridoma cell supernatant were capable of blocking TNFα binding to receptor.
# [4] = target: T2, human lymphotoxin (human, UniProt P01374 35-205, limits assumed); assay: not described
# T2 sequence (looked up): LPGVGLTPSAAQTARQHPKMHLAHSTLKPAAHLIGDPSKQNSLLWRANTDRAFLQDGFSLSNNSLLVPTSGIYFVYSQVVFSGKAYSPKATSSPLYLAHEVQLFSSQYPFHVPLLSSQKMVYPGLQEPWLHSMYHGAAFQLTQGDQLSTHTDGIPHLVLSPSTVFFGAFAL
Binder,neutralizing TNFα bioactivity [1] [fold],fold better at blocking TNF binding (against TNV118 and TNV14) [2] [fold],IC50 (read off the curve) [3] [ng/mL],binding result [4]
B1,4,~4,~3,–
B2,–,~4,–,–
B3,–,–,~3,–
B4,–,–,–,no binding
